In patent US20190022241A1 (AbbVie / Abbott, published 2019):

How the values were obtained:
[1] = biological target: T1, SEZ6 N3 (aa 170-335) on yeast (human, UniProt Q53EL9 189-354); experiment: yeast display, flow cytometry;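 further: antibody binding to individual SEZ6 domains displayed on yeast, measured by flow cytometry, antibody at 50 nM purified or hybridoma supernatant diluted 1:2, 90 min on ice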
T1 construct: yeast display
T1 sequence: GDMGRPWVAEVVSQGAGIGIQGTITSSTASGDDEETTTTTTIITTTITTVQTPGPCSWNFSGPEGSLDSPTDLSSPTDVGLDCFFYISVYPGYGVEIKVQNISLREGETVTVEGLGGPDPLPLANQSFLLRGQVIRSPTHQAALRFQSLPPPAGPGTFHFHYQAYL

[2] = biological target: T2, mouse SEZ6 on Neuro2a cells (mouse, UniProt Q7TSK2 20-991); experiment: flow cytometry, Neuro2a cells, 5 ug/mL antibody
T2 construct: endogenous on Neuro2a cells; also called murine SEZ6; mSEZ6

[3] = biological target: T3, rat SEZ6 on RIN-m5F cells (rat, UniProt Q7TSK2 20-991 (mouse entry)); experiment: flow cytometry, RIN-m5F cells, 5 ug/mL antibody
T3 construct: endogenous on RIN-m5F cells; also called rSEZ6
T3 chain: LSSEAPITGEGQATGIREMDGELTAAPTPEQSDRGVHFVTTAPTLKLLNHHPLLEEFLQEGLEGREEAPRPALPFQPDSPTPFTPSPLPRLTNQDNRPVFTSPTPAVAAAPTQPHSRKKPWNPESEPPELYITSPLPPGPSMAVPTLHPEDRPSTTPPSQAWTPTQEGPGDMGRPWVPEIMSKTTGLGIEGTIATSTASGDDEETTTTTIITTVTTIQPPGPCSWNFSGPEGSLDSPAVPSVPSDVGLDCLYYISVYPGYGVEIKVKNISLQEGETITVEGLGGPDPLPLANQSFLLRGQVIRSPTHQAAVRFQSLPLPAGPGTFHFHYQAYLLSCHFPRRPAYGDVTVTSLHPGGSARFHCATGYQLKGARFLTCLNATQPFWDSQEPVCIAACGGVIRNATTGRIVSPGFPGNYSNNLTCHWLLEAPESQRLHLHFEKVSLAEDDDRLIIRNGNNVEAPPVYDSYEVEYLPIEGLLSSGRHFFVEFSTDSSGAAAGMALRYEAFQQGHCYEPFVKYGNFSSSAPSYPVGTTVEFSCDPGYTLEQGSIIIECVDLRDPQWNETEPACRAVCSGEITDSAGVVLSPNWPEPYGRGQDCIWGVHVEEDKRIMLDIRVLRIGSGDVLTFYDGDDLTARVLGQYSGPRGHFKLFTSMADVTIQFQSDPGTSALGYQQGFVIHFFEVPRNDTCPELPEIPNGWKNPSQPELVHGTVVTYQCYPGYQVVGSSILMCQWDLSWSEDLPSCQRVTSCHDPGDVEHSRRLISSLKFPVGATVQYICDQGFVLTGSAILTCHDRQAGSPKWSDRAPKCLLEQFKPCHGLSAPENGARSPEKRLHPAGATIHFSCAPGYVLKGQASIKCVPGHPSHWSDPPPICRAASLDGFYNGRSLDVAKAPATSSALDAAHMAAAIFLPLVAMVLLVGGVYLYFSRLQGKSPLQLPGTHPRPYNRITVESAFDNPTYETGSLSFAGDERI

human SEZ6L2 ECD-His = biological target: T4, human SEZ6L2 ECD-His (human, UniProt Q6UXD5 28-843); experiment: mark of Table 5 for antibodies that bind SEZ6L2
T4 construct: whole entry named

human SEZ6L ECD-His = biological target: T5, human SEZ6L ECD-His (human, UniProt Q9BYH1 29-955); experiment: ELISA on plates coated with SEZ6L protein
T5 construct: whole entry named
T5 sequence: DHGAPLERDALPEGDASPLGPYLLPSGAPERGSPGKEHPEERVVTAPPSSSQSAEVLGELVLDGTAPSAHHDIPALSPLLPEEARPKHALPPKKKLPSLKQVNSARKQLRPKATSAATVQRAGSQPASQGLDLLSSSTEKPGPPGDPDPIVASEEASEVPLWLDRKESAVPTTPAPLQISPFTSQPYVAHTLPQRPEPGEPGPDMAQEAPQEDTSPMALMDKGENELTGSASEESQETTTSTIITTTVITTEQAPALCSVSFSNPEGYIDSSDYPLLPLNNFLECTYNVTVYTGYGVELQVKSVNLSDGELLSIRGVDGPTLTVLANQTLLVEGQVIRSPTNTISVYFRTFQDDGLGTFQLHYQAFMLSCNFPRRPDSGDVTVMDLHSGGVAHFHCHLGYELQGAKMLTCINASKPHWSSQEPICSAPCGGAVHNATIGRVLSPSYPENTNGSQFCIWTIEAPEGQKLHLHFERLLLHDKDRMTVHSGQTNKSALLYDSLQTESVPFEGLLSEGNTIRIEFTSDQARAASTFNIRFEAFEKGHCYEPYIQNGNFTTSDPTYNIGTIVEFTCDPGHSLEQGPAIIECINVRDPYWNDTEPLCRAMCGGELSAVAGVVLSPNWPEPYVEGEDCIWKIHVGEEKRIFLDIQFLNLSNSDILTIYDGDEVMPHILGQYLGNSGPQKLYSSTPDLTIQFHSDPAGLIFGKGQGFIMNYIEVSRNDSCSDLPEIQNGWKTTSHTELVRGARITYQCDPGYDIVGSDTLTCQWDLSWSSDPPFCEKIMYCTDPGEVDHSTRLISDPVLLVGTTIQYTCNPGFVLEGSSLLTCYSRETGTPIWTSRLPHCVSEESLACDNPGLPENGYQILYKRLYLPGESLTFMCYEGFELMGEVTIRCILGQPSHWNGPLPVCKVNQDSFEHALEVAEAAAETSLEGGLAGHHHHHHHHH

rSEZ6-ECD-His = biological target: T6, rSEZ6-ECD-His (rat, UniProt Q7TSK2 20-922 (mouse entry)); experiment: bio-layer interferometry (ForteBio RED) or surface plasmon resonance (Biacore 2000) on rat SEZ6-His; the table does not say which; column Rat XR (Kd, nM)
T6 construct: the whole entry is named; also called rat recombinant SEZ6-His; rat SEZ6 ECD
T6 chain: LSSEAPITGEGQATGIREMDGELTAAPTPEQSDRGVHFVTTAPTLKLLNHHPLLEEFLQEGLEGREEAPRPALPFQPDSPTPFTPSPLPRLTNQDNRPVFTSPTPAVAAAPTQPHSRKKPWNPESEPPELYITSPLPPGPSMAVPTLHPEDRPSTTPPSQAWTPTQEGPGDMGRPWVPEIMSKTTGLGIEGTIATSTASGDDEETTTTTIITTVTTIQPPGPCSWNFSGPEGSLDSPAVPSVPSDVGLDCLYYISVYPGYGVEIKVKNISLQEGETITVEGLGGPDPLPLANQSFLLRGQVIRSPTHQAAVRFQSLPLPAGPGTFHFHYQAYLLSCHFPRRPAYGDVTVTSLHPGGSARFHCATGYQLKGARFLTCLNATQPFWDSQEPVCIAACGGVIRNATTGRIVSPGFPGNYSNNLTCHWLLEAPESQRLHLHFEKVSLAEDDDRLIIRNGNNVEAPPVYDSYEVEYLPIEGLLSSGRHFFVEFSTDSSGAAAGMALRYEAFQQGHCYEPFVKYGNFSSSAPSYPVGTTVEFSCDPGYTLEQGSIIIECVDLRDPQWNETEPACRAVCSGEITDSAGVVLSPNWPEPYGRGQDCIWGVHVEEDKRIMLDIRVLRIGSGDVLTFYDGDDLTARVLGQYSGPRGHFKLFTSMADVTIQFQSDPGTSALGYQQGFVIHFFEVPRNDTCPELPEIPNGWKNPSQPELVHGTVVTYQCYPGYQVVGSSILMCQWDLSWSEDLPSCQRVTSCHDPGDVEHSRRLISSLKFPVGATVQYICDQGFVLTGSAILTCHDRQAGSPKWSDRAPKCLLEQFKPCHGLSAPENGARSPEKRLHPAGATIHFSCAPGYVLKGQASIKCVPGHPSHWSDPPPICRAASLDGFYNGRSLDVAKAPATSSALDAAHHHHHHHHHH

hSEZ6-ECD-His = biological target: T7, hSEZ6-ECD-His (human, UniProt Q53EL9 20-925); experiment: bio-layer interferometry (ForteBio RED) or surface plasmon resonance (Biacore 2000) on human SEZ6-His; the table does not say which; column Hu Affinity (Kd, nM)
T7 construct: the whole entry is named; also called recombinant SEZ6-His; human recombinant SEZ6-His

T4 sequence (Q6UXD5 other isoform, or with tags, fused parts or gaps): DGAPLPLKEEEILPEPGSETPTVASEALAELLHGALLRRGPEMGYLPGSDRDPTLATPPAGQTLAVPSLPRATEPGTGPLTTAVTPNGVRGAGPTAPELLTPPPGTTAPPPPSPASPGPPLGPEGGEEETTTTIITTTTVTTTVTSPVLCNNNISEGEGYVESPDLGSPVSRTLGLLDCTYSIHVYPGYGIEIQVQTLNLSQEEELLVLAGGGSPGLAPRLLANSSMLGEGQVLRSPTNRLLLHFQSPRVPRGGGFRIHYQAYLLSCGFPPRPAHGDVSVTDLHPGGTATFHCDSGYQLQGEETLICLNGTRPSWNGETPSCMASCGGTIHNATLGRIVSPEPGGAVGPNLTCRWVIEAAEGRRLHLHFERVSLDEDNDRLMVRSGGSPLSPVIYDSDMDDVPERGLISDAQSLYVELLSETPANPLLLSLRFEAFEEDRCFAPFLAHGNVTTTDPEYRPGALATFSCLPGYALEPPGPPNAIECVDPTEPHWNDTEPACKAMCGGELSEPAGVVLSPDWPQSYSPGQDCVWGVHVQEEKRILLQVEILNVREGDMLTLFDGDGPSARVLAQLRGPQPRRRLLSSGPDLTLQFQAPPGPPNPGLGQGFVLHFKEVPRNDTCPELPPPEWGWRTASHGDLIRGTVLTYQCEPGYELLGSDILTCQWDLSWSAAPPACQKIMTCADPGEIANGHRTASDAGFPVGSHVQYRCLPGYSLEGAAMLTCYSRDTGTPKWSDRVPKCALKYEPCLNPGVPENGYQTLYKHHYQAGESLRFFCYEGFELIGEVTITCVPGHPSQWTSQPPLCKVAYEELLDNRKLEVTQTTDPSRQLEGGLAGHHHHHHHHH

B1: SC17.161 (antibody, V domains shown)
VH: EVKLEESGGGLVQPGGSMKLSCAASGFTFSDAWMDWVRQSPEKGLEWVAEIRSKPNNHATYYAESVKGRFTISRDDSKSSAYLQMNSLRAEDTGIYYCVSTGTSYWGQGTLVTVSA
VL: DIVMSQSPSSLAVSVGEKVTMNCESSQSLLYNSNQKNYLAWYQQKPGQSPKLLIYWASTRDSGVPDRFTGSGSGTDFTLTISSVRADDPAVYYCQQYFNYPLTFGAGTKLELK
notes: murine mAb
**Q.** Does B1 bind [1]?
**A.** binds

B2: SC17.6 (antibody, V domains shown)
VH: EVQLQQSGPELMKPGASVKMSCKASGYTFTDYNMYWVKQNQGKSLEWIGEINPNNGGTAYNQKFRGKATLTVDKSSSTAYMELRSLTSEDSAVYYCARYDKGFDYWGQGTTLTVSS
VL: DIQMTQSPASLSVSVGETVTITCRASANINSNLVWYQQKQGKSPQLLVYAATNLADGVPSRFSGSGSGTQYSLKINSLQSEDFGNYYCQHFWGTPRTFGGGTKLEIK
notes: murine mAb; also called SC17.16 (duplicate)
**Q.** Does B2 bind [2]?
**A.** binds

**Q.** Does B2 bind [3]?
**A.** binds

**Q.** Does B2 bind (human SEZ6L2 ECD-His)?
**A.** binds

**Q.** Does B2 bind (human SEZ6L ECD-His)?
**A.** no binding (tested: 1 µg/mL)

**Q.** What about the Kd (rSEZ6-ECD-His) of the same binder?
**A.** < 1 nM

**Q.** What about the Kd (hSEZ6-ECD-His) of the same binder?
**A.** < 1 nM

B3: SC17.85 (antibody, V domains shown)
VH: EVQLVESGGDLVKPGGSLKLSCAASGFTFSNYGMSWVRQTPDKRLEWVATISTGGTYTYYPDSVKGRFTISRDNAKNTLYLQMSSLKSEDTAMYYCVGQSYSDYVSFAYWGQGTQVTVSA
VL: DIVMTQAAFSNPVTLGTSASISCRSSKSLLHSNGITYLYWYLQKPGQSPQLLIYQMSNLASGVPERFSSSGSGSDFTLRISRVEAEDVGVYYCAQNLEHPTFGGGTKLEIK
notes: murine mAb
**Q.** Does B3 bind [1]?
**A.** binds

B4: SC17.91 (antibody, V domains shown)
VH: EVQLVESGGGLVKPGGSRKLSCAASGFTFSDYGMHWVRQAPEKGLEWVAYISRGSSTIHYADTVKGRFTISRDNAKNTLFLQMTSLRSEDTAMYYCARPFNWYFDVWGAGTTVTVSS
VL: DVVMTQTPLSLPVSLGDQASISCRSSQSLVHSNGNTYLLWYLQKPGQSPKLLIYKVSNRFSGVPDRFSGSGSGTDFALKISRVEAEDLGVYFCSQSTHVPWTFGGGTKLEIK
notes: murine mAb
**Q.** Does B4 bind [1]?
**A.** binds
